US11246958B2, “Haemostatic compositions” (HAEMOSTATIX LIMITED, priority 2015, dated 2022)
Where no end group is shown, it is not given here.

Columns and labels:
[1] = biological target: T1, purified human fibrinogen (Homo sapiens, UniProt P02675+P02679); test: Copolymerisation of peptide dendrimers with purified human fibrinogen, clotting time on KC4 Delta coagulation analyser; type: biochemical; settings: for activity of mixtures of peptide conjugate and peptide dendrimer in copolymerising with fibrinogen: conjugate 2 mg/ml mixed with Peptide Dendrimer No. 3 or 4 at 0.025-0.5 mg/ml
T1 sequence (P02679 27-437 isoform P02679-2 limits assumed): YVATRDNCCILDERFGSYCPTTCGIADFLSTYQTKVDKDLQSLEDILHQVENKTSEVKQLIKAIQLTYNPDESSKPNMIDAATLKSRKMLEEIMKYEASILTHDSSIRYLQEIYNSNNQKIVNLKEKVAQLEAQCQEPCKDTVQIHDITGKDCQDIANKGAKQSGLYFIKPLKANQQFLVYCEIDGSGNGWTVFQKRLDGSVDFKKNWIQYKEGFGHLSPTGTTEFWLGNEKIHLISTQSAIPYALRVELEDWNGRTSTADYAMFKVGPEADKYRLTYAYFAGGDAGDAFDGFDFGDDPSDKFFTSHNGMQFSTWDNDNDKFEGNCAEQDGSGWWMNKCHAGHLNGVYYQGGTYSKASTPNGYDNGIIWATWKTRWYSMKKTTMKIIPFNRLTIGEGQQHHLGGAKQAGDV
T1 sequence (P02675 31-491): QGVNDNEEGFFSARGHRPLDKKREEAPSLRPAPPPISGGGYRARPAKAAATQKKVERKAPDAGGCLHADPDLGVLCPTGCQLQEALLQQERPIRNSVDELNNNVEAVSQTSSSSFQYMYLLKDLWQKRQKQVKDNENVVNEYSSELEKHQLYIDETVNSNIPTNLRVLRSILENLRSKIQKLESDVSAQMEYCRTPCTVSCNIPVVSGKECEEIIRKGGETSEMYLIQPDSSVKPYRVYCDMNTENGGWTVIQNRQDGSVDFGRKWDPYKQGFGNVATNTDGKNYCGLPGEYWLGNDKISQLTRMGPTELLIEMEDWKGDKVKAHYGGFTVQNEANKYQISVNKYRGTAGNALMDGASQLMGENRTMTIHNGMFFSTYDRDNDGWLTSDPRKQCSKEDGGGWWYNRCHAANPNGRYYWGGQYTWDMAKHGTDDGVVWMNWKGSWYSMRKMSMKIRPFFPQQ
T1 sequence (P02671 20-629 partner limits assumed): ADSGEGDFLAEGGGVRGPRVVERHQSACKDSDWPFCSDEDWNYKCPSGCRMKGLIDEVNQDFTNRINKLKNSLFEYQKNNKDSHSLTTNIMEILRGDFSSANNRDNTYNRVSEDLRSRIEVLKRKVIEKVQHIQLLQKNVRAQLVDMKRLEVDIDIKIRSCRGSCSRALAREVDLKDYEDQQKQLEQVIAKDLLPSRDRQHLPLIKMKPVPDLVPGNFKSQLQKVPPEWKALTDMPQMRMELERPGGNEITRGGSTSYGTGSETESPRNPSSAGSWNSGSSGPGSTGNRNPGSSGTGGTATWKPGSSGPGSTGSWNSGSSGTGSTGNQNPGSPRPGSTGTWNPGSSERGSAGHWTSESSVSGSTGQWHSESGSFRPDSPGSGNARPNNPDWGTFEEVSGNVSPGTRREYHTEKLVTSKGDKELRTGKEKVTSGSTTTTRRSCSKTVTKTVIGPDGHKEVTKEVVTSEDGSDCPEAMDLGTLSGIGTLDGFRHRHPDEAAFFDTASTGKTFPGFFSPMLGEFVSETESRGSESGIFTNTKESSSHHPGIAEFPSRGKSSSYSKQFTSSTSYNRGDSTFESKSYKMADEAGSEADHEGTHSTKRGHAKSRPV
Method: The ability of Peptide Dendrimer No. 12 to polymerise fibrinogen was assessed. 30 μl of dendrimer in solution, at concentration ranging from 0.005-2 mg/ml, was added to 100 μl purified human fibrinogen at 3 mg/ml (the level of fibrinogen found in the blood). Polymerisation of fibrinogen was analysed using a Sigma Amelung KC4 Delta coagulation analyser.
The ability of Peptide Dendrimer Nos. 4, 5, 10, 11, and 12 to copolymerise with fibrinogen was assessed using the same method described in Example 2. The concentration of each dendrimer was varied from 0.005-0.5 mg/ml.
The ability of the dendrimers to copolymerise with fibrinogen was assessed using the same method described in Example 2, for a concentration of each dendrimer ranging from 0.005-0.5 mg/ml.
Peptide Conjugate No. 1 or 2 (2 mg/ml) was mixed with Peptide Dendrimer No. 3 or 4, and fibrinogen, and the ability of the mixtures to copolymerise with fibrinogen was assessed using the same method described in Example 2, for a concentration of each dendrimer ranging from 0.025-0.5 mg/ml.

[2] = biological target: T2, fibrinogen in human plasma (Homo sapiens, UniProt P02675+P02679); test: Polymerisation of fibrinogen in human plasma by peptide dendrimers; type: biochemical; settings: 30 μL dendrimer 0.25 mg/ml in 100 μL human plasma, 37° C.
T2 construct: from tissue; host or cells: human plasma
T2 sequence (P02679 27-437 isoform P02679-2 limits assumed): T1 sequence (P02679 27-437 isoform P02679-2 limits assumed)
T2 sequence (P02675 31-491): T1 sequence (P02675 31-491)
T2 sequence (P02671 20-629 partner limits assumed): T1 sequence (P02671 20-629 partner limits assumed)
Method: 30 μL of each dendrimer (at a concentration of 0.25 mg/ml) was added to 100 μL human plasma at 37° C., and polymerisation of fibrinogen was determined using a Sigma Amelung KC4 Delta coagulation analyzer.

Peptide Conjugate No. 2: GHRPY peptide and reverse sequence YPRHG (amidated), each attached by a linker to a lysine residue (peptide 2 YPRHG-NH2; also: each peptide attached by a linker to a lysine residue)
activity of mixtures of peptide conjugate and peptide dendrimer in copolymerising with fibrinogen [1]: synergistic and increased activity

Peptide Dendrimer No. 9: three-branch dendrimer, two GPRPFPA peptides and one APFPRPG attached by its amino-terminal end, carboxy-terminal amide (chain 2 APFPRPG-NH2; not fully specified; also: three-branch dendrimer: two GPRPFPA and one APFPRPG attached by amino-terminal end; listed as Homo sapiens)
ability to copolymerise with fibrinogen ([1]; dendrimer 0.005-0.5 mg/ml, fibrinogen 3 mg/ml): very active in copolymerising with fibrinogen | ability to polymerise fibrinogen in human plasma [2]: not able to polymerise fibrinogen in human plasma

Peptide Conjugate No. 1: two GPRP fibrinogen-binding peptides each attached by a linker to a lysine residue, second attached by amino-terminal end and amidated (peptide 2 GPRP-NH2; also: each GPRP attached by a linker to a lysine residue, second attached by amino-terminal end)
activity of mixtures of peptide conjugate and peptide dendrimer in copolymerising with fibrinogen [1]: not active
